The record followed here is paper PMC2577008, “The Transcriptional Repressor Protein NsrR Senses Nitric Oxide Directly via a [2Fe-2S] Cluster” (PLoS ONE, 2008).

The stoichiometry N is a count of units in the complex or per binding partner.

The target of data set [1] is T1, [2Fe-2S] NsrR (holo) (Streptomyces coelicolor, UniProt Q9L132 1-148).
T1 sequence: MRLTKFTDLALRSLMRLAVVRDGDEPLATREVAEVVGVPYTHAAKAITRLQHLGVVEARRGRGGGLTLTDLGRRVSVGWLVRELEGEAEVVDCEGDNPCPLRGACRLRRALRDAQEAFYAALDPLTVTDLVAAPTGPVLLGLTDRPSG
The experiment in a line: analytical ultracentrifugation (sedimentation equilibrium); [2Fe-2S] cluster; 2 uM DNA, 10 uM NsrR; mass 17.4 to 47.3 kDa, homodimer; EMSA: 10 mM Tris-HCl pH 7.5, 60 mM KCl, on ice 2 min, ~20 ng probe, NsrR diluted to 500 nM in 50 mM Tris pH 7.0 (legend: 50 mM Tris pH 7.0, 100 mM NaCl); AUC: 5. The settings on record: protein: recombinant; tags: none stated (pET21a; reverse primer includes the stop codon); chain copies: 2; blunt.

Data set [2] deals with T1, [2Fe-2S] NsrR (holo). The data set can be described thus: analytical ultracentrifugation (sedimentation equilibrium); [2Fe-2S] cluster; 2 uM DNA, 10 uM NsrR; EMSA: 10 mM Tris-HCl pH 7.5, 60 mM KCl, on ice 2 min, ~20 ng probe, NsrR diluted to 500 nM in 50 mM Tris pH 7.0 (legend: 50 mM Tris pH 7.0, 100 mM NaCl); AUC: 5. The settings on record: protein: recombinant; tags: none stated (pET21a; reverse primer includes the stop codon); chain copies: 2; blunt.

Data set [3] concerns the molecule itself. The data set can be described thus: AUC; sedimentation equilibrium at 16,000, 18,000 and 20,000 rpm, absorbance at 260 nm; 10 uM monomeric NsrR with 2 uM 30 bp double-stranded oligonucleotide (hmpA2 or hmpA1 binding site); 50 mM Tris pH 8.0 (legend: pH 7.0), 100 mM NaCl, 1 mM dithiothreitol; one-component fit; the mass of the DNA-protein complex is measured.

Data set [4] has as its target T1, [2Fe-2S] NsrR (holo). The data set can be described thus: analytical ultracentrifugation (sedimentation equilibrium); [2Fe-2S] cluster; 2 uM DNA, 10 uM NsrR; mass 45.0 kDa with NsrR; EMSA: 10 mM Tris-HCl pH 7.5, 60 mM KCl, on ice 2 min, ~20 ng probe, NsrR diluted to 500 nM in 50 mM Tris pH 7.0 (legend: 50 mM Tris pH 7.0, 100 mM NaCl); AUC: 5. The settings on record: protein: recombinant; tags: none stated (pET21a; reverse primer includes the stop codon); chain copies: 2; blunt.

B1: hmpA2 30 bp oligonucleotide (dsDNA)
DNA 1: GGAAAACAAGCATCTGAGATCCCAGTTCGG
DNA 2: CCGAACTGGGATCTCAGATGCTTGTTTTCC
Turning to B1, the binding result in data set [1] is listed as “binds”.

B2: Control oligonucleotide (nsrR coding sequence) (dsDNA)
DNA 1: CCGCCTGCAGGCCCTGGGTGTG
DNA 2: CACACCCAGGGCCTGCAGGCGG
Turning to B2, in data set [2], the binding result was “no binding”.

B3: NsrR from Streptomyces coelicolor ([2Fe-2S] NsrR) (natural protein, UniProt Q9L132 1-148, looked up)
chain: T1 sequence
notes: NsrR (SCO7427), Rrf2 family transcriptional repressor of Streptomyces coelicolor; nsrR gene amplified from genomic DNA with primers from the start codon (CATATG...) to the stop codon (TCA... on the reverse primer); calculated monomer mass 15.9 kDa; Carries a [2Fe-2S] cluster as purified (on average 28% cluster incorporation); also called SCO7427; holo [2Fe-2S]; NsrR
Take B3: the “stoichiometry N” value in data set [3] is 2.

B4: hmpA1 30 bp oligonucleotide (dsDNA)
DNA 1: CTAAAACACGAATATCATCTACCAATTAAG
DNA 2: CTTAATTGGTAGATGATATTCGTGTTTTAG
As for B4, in data set [4], the binding result is “binds”.
